The test addresses Z-domain (an engineered analogue of the IgG-binding domain of protein A). As to the kind of experiment: isothermal titration calorimetry, Z-domain injected into IgG. On the technique in general: Isothermal titration calorimetry measures the heat released or taken up as one component is titrated into another.

Take mmIgG2b-P307T-Q309L-K409R (antibody): the fold tighter binding than mmIgG2b-F405L was 5 fold.

The values above are taken from patent US20170327597A1.
